From US20240158512A1 (TRUEBINDING, published 2024)
Where “and” joins values, the source holds several entries; their conditions need not be identical. Equal values may be shown once.

Legend:
Galectin-3 [1] = molecular target: T1, Galectin-3 (UniProt P17931 1-250, limits assumed); assay: BLI (Binding Activity); long-term stability 5 C, 3 months
T1 construct: Target of the anti-Gal3 antibody TB006; also called Gal3; GAL3

Galectin-3 [2] = molecular target: T1, Galectin-3; assay: BLI; after 4 C for 6 months
Galectin-3 [3] = molecular target: T1, Galectin-3; assay: ELISA blocking assay; TB006 diluted to 0.31 mg/mL in 0.9% NaCl, 25 C, 4 h; blocked partner not named
Galectin-3 [4] = molecular target: T1, Galectin-3; assay: BLI; after 3 freeze/thaws, 100% vol. of container
Galectin-3 [5] = molecular target: T1, Galectin-3; assay: BLI; after 5 freeze/thaws, 100% vol. of container
Galectin-3 [6] = molecular target: T1, Galectin-3; assay: BLI; after -80 C for 1 month
Galectin-3 [7] = molecular target: T1, Galectin-3; assay: BLI; after agitation (shear stress)
Galectin-3 [8] = molecular target: T1, Galectin-3; assay: ELISA (Biological Activity); long-term stability 5 C, 0 months
Galectin-3 [9] = molecular target: T1, Galectin-3; assay: ELISA (Biological Activity); accelerated stability 25 C/60% RH, 3 months
Galectin-3 [10] = molecular target: T1, Galectin-3; assay: BLI; after 40 C for 14 days
Galectin-3 [11] = molecular target: T1, Galectin-3; assay: ELISA (Biological Activity); accelerated stability 25 C/60% RH, 0 months
Galectin-3 [12] = molecular target: T1, Galectin-3; assay: BLI; after 3 freeze/thaws, 50% vol. of container
Galectin-3 (Gal3) [13] = molecular target: T2, Galectin-3 (Gal3) (UniProt P17931 1-250, limits assumed); assay: BLI; 50 mg/mL DS after -80 C for 6 months
T2 construct: Target of TB006

Galectin-3 (Gal3) [14] = molecular target: T2, Galectin-3 (Gal3); assay: BLI; 20 mg/mL DS, time 0 control
Summary of the method: (§1)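 Binding to Galectin-3 was assessed by biolayer interferometry and given as the dissociation constant (Kd). Samples were tested at time zero or after stress, namely agitation (shear), repeated freeze-thaw cycles, or storage at set temperatures. The storage conditions included a 40° C stress test and cryogenic storage.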

Galectin-3 (Gal3) [15] = molecular target: T2, Galectin-3 (Gal3); assay: BLI; 20 mg/mL DS after -80 C for 12 months
Summary of the method: as §1

Galectin-3 (Gal3) [16] = molecular target: T2, Galectin-3 (Gal3); assay: BLI; 20 mg/mL DS after 25 C for 9 months
Galectin-3 (Gal3) [17] = molecular target: T2, Galectin-3 (Gal3); assay: BLI; 50 mg/mL DS after 4 C for 12 months
Galectin-3 (Gal3) [18] = molecular target: T2, Galectin-3 (Gal3); assay: BLI; 50 mg/mL DS after agitation for 1 day
Galectin-3 (Gal3) [19] = molecular target: T2, Galectin-3 (Gal3); assay: BLI; 50 mg/mL DS after 4 C for 1 month
Galectin-3 (Gal3) [20] = molecular target: T2, Galectin-3 (Gal3); assay: BLI; 50 mg/mL DS after 40 C for 28 days
Galectin-3 (Gal3) [21] = molecular target: T2, Galectin-3 (Gal3); assay: BLI; 20 mg/mL DS after 25 C for 3 months
Summary of the method: as §1

Galectin-3 (Gal3) [22] = molecular target: T2, Galectin-3 (Gal3); assay: BLI; 20 mg/mL DS after -80 C for 3 months
Galectin-3 (Gal3) [23] = molecular target: T2, Galectin-3 (Gal3); assay: BLI; 50 mg/mL DS, time 0 control
Galectin-3 (Gal3) [24] = molecular target: T2, Galectin-3 (Gal3); assay: BLI; 20 mg/mL DS after 5 freeze/thaws
Summary of the method: as §1

Galectin-3 (Gal3) [25] = molecular target: T2, Galectin-3 (Gal3); assay: BLI; 50 mg/mL DS after -80 C for 12 months
Galectin-3 (Gal3) [26] = molecular target: T2, Galectin-3 (Gal3); assay: BLI; 20 mg/mL DS after -80 C for 6 months
Summary of the method: as §1

Galectin-3 (Gal3) [27] = molecular target: T2, Galectin-3 (Gal3); assay: BLI; 50 mg/mL DS after 40 C for 14 days
Galectin-3 (Gal3) [28] = molecular target: T2, Galectin-3 (Gal3); assay: BLI; 50 mg/mL DS after 4 C for 9 months
Galectin-3 (Gal3) [29] = molecular target: T2, Galectin-3 (Gal3); assay: BLI; 50 mg/mL DS after 25 C for 1 month
Galectin-3 (Gal3) [30] = molecular target: T2, Galectin-3 (Gal3); assay: BLI; 50 mg/mL DS after 40 C for 21 days
Galectin-3 (Gal3) [31] = molecular target: T2, Galectin-3 (Gal3); assay: BLI; 20 mg/mL DS after -80 C for 9 months
Galectin-3 (Gal3) [32] = molecular target: T2, Galectin-3 (Gal3); assay: BLI; 50 mg/mL DS after 3 freeze/thaws

T2 sequence (P17931 whole entry): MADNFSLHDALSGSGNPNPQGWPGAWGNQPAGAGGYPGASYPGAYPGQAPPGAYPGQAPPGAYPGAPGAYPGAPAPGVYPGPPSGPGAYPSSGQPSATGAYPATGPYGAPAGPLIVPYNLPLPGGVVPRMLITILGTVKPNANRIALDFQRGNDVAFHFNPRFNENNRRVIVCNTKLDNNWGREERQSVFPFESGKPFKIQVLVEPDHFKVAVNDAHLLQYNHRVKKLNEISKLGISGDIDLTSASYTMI
T1 sequence (P17931 whole entry): as above

B1: TB006 (antibody, human IgG4 S228P, kappa, V domains shown)
VH: QVQLVQSGAEVKKPGASVKVSCKASGYSFTNYYMHWVRQAPGQRLEWMGWIYPGSGNTNYNEKFQGRVTITADTSASTAYMELSSLRSEDTAVYYCSTAPGGFDVWGQGTTVTVSS
VL: DIVMTQTPLSLSVTPGQPASISCKSSKSLLHSDGITYLYWYLQKPGQSPQLLIYRMSNLASGVPDRFSGSGSGTDFTLKISRVEAEDVGVYYCAQMLEFPLTFGQGTKLEIKR
notes: Tested as formulated drug substance or drug product in 20 mM L-histidine, 5 mM methionine, 100 mM NaCl, 0.02% polysorbate 80, pH 5.8, or diluted in 0.9% saline; also called 4A11.H3L1; IMT006a
- Kd (Galectin-3 [1]): 3 nM
- Kd (Galectin-3 [2]): 2.3 nM
- IC50 (Galectin-3 [3]): 1.35 µg/mL and 1.41 µg/mL
- Kd (Galectin-3 [4]): 2.7 nM
- Kd (Galectin-3 [5]): 2.6 nM
- Kd (Galectin-3 [6]): 3.2 nM
- Kd (Galectin-3 [7]): 2.8 nM
- IC50 (Galectin-3 [8]): 2.5 µg/mL
- IC50 (Galectin-3 [9]): 1.5 µg/mL
- Kd (Galectin-3 [10]): 2.5 nM
- IC50 (Galectin-3 [11]): 2.5 µg/mL
- Kd (Galectin-3 [12]): 2.3 nM

B2: TB006 (antibody, human IgG4 S228P, kappa, V domains shown)
VH: B1 VH
VL: B1 VL
notes: Full antibody tested as drug substance (DS) in 20 mM L-histidine, 5 mM methionine, 100 mM NaCl, 0.02% polysorbate-80, pH 5.8; also called 4A11.H3L1; IMT006a
- Kd (Galectin-3 (Gal3) [13]): 1.8 nM
- Kd (Galectin-3 (Gal3) [14]): 2.9 nM
- Kd (Galectin-3 (Gal3) [15]): 2.7 nM
- Kd (Galectin-3 (Gal3) [16]): 2.1 nM
- Kd (Galectin-3 (Gal3) [17]): 3.7 nM
- Kd (Galectin-3 (Gal3) [18]): 3.8 nM
- Kd (Galectin-3 (Gal3) [19]): 2.1 nM
- Kd (Galectin-3 (Gal3) [20]): 2.3 nM
- Kd (Galectin-3 (Gal3) [21]): 3.4 nM
- Kd (Galectin-3 (Gal3) [22]): 3.5 nM
- Kd (Galectin-3 (Gal3) [23]): 2.6 nM
- Kd (Galectin-3 (Gal3) [24]): 3.1 nM
- Kd (Galectin-3 (Gal3) [25]): 3.5 nM
- Kd (Galectin-3 (Gal3) [26]): 2.7 nM
- Kd (Galectin-3 (Gal3) [27]): 2.7 nM
- Kd (Galectin-3 (Gal3) [28]): 2.8 nM
- Kd (Galectin-3 (Gal3) [29]): 2.2 nM
- Kd (Galectin-3 (Gal3) [30]): 3 nM
- Kd (Galectin-3 (Gal3) [31]): 1.7 nM
- Kd (Galectin-3 (Gal3) [32]): 3.9 nM
